From patent publication US20040048790A1 come the findings set out here.

Bounds are passed on as bounds.

The first assay concerns the target HLA-A*0203 (human). Description: 125I-probe peptide inhibition, purified HLA. The note with it: remark: other sources report otherwise.
With ALNKMFCQLA [p53.129 (10-mer)], the concentration for half-maximal inhibition (IC50) – broadly, the concentration that inhibits the measured activity by half – was 71 nM. On the same count and under the same terms, under CLLAKTCPV [p53.135L2] stands 67 nM. The molecule NLLGRNSFEV [p53.263] yielded an IC50 of 2500 nM.

The target of a further assay is HLA-A*0206 (human). Description: 125I-probe peptide inhibition, purified HLA. The note with it: remark: other sources report otherwise.
Turning to ALNKMFCQL [p53.129 (9-mer)], the half-inhibitory concentration (IC50) was found to be 73 nM. Regarding ALNKMFCQLV [p53.129V10], the IC50 is 7400 nM. In turn, CLLAKTCPV [p53.135L2] displayed an IC50 of 370 nM.

The next assay addresses HLA-A*1101 (human). Description: inhibition of 125I probe peptide binding to purified HLA. To be noted: remark: other sources report otherwise.
Regarding YGFRLGFLH [p53 position 107, 9 amino acids], the relative binding ratio (ratio to standard peptide) turned out to be 0.26. On the same count and under the same terms, under TSSSPQPK [p53 position 312, 8 amino acids] stands 0.0019. The same measure, in the same setting: the figure for TSRHKKLMFK [p53 position 377, 10 amino acids] is 0.0052; for KGQSTSRHK [p53 position 373, 9 amino acids] it is 0.0002. Still for that read-out and setting: the figure for SSCMGGMNR [p53 position 240, 9 amino acids] is 1.4; for TCTYSPALNK [p53 position 123, 10 amino acids] it is 0.012; for RTEEENLRK [p53 position 283, 9 amino acids] it is 0.091. Regarding VTCTYSPALNK [p53 position 122, 11 amino acids], the relative binding ratio (ratio to standard peptide) came to 0.12. As for LGFLHSGTAK [p53 position 111, 10 amino acids], the relative binding ratio (ratio to standard peptide) came to 0.0002. Same read-out and setting: the figure for RVRAMAIYK [p53 position 156, 9 amino acids] is 0.73; for SSCMGGMNRR [p53 position 240, 10 amino acids] it is 0.086.

The target in the next assay is HLA-A*0201 (human). Description: binding to purified HLA-A*0201 in vitro. To be noted: remark: other sources report otherwise.
The molecule KMFCQLAKT [p53 peptide, position 132, 9 amino acids] gave an IC50 of less than 500 nM. The same measure, in the same setting: the figure for LLPENNVLSPL [p53 peptide, position 25, 11 amino acids] is less than 500 nM; for KQSQHMTEV [p53 peptide, position 164, 9 amino acids] it is less than 500 nM.

FLHSGTAKSV [p53 peptide, position 113, 10 amino acids] gave an IC50 of less than 500 nM. The same measure, in the same setting: the figure for GLAPPQHLIRV [p53 peptide, position 187, 11 amino acids] is less than 500 nM; for RMPEAAPPVA [p53.65 (10 amino acids)] it is less than 500 nM; for CQLAKTCPV [p53 peptide, position 135, 9 amino acids] it is less than 500 nM.

NLLGRNSFEV [p53 peptide, position 263, 10 amino acids] returned an IC50 of less than 500 nM. On the same count and under the same terms, under RMPEAAPPV [p53.65 (9 amino acids)] stands less than 500 nM; under QLAKTCPV [p53.136 (8 amino acids)], less than 500 nM. The same measure, in the same setting: the figure for KLLPENNVL [p53 peptide, position 24, 9 amino acids] is less than 500 nM.
